Patent publication US20200087373A1 (UNIVERSITY OF COPENHAGEN, published 2020)
Ends that are not written are not given here. * marks the point of attachment. C16 diacid = O=C(O)CCCCCCCCCCCCCCC(=O)*; Stearoyl = CCCCCCCCCCCCCCCCCC(=O)*; Palmitoyl = CCCCCCCCCCCCCCCC(=O)*; Myristoyl = CCCCCCCCCCCCCC(=O)*; Lauroyl = CCCCCCCCCCCC(=O)*

T1: human GIP receptor (human, UniProt P48546 22-466)
T1 construct: whole, on cells; Transiently transfected COS-7 cells expressing the human GIP receptor; also called hGIPR
T1 sequence (looked up): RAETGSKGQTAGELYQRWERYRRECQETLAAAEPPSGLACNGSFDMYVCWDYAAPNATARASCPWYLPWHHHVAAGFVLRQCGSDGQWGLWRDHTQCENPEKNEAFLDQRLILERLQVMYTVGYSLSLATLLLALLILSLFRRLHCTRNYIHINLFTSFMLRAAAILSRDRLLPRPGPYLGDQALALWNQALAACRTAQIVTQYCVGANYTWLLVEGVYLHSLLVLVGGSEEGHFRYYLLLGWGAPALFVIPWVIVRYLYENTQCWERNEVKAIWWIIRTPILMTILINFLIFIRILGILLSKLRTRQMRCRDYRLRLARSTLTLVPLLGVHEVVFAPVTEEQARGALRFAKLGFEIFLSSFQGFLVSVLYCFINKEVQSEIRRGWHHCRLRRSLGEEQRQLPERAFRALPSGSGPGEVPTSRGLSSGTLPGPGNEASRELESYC


Key:
[1] = molecular target: human GIP receptor (human) (UniProt P48546); experiment: cell-based or functional assay
[2] = molecular target: human GIP receptor (human) (UniProt P48546); experiment: ratio of IC50 with 2% HSA to IC50 with 0.1% casein, 125I-hGIP competition binding on hGIPR COS-7 cells
[3] = molecular target: human GIP receptor (human) (UniProt P48546); experiment: 125I-hGIP(1-42) competition binding, COS-7 cells expressing human GIPR
[4] = molecular target: human GIP receptor (human) (UniProt P48546); experiment: 125I-hGIP(1-42) competition binding, COS-7 cells expressing human GIPR, 0.1% casein (no HSA)
[5] = molecular target: human GIP receptor (human) (UniProt P48546); experiment: 125I-hGIP(1-42) competition binding, COS-7 cells expressing human GIPR, 2% HSA
[6] = molecular target: human GIP receptor (human) (UniProt P48546); experiment: 125I-hGIP competition binding on hGIPR COS-7 cells; fold in affinity, paired, reference taken as GIP(3-30)NH2
[7] = molecular target: human GIP receptor (human) (UniProt P48546); experiment: 125I-hGIP competition binding, COS-7 cells expressing hGIPR
human GIP receptor [8] = molecular target: T1, human GIP receptor; experiment: 125I-hGIP(1-42) competition binding, COS-7 cells expressing human GIPR
Protocol: (§1) After incubation, the cells were washed twice in ice-cold binding buffer (+/−2% HSA) and lysed using 200 mM NaOH with 1% SDS for 30 min. Nonspecific binding was determined as the binding of radioactive ligand to untransfected cells.

human GIP receptor [9] = molecular target: T1, human GIP receptor; experiment: ratio of IC50 with 2% HSA to IC50 with 0.1% casein, 125I-hGIP competition binding on hGIPR COS-7 cells
Protocol: as §1

human GIP receptor [10] = molecular target: T1, human GIP receptor; experiment: 125I-hGIP(1-42) competition binding, COS-7 cells expressing human GIPR, 0.1% casein (no HSA)
Protocol: as §1

human GIP receptor [11] = molecular target: T1, human GIP receptor; experiment: cell-based or functional assay
human GIP receptor [12] = molecular target: T1, human GIP receptor; experiment: 125I-hGIP(1-42) competition binding, COS-7 cells expressing human GIPR, 2% HSA
Protocol: as §1

human GIP receptor [13] = molecular target: T1, human GIP receptor; experiment: 125I-hGIP competition binding on hGIPR COS-7 cells; fold in affinity, paired, reference taken as GIP(3-30)NH2
Protocol: as §1

Row | Molecule | cAMP - antagonisme IC50 [1] [nM] | cAMP - antagonisme fold (paired) [1] [fold] | Fold change (IC50 2% HSA / IC50 0.1% casein) [2] [fold] | IC50 [3] [nM] | IC50 [4] [nM] | IC50 [5] [nM] | fold (paired) [6] [fold] | log IC50 [7] [log M] | IC50 (human GIP receptor [8]) [nM] | Fold change (IC50 2% HSA / IC50 0.1% casein) (human GIP receptor [9]) [fold] | IC50 (human GIP receptor [10]) [nM] | cAMP - antagonisme IC50 (human GIP receptor [11]) [nM] | cAMP - antagonisme fold (paired) (human GIP receptor [11]) [fold] | IC50 (human GIP receptor [12]) [nM] | fold (paired) (human GIP receptor [13]) [fold]
1 | AT114 [hGIP(3-30)NH2-C18/16] (peptide) | 29.2 | 2.3 | 7.7 | 102 | 115 | 881 | 6.7 |  |  |  |  |  |  |  | 
2 | AT162 (H18K; K30R, C18 at position 16, as printed in Table 3b) (peptide) | 26.3 | 0.5 | 5.6 | 59.8 | 59.8 | 336 | 2.6 |  |  |  |  |  |  |  | 
3 | AT162, second row of Table 3b (H18K; K30R, C16 at position 16) (peptide) | 213 | 4.1 | 3.3 | 213 | 213 | 705 | 9.2 |  |  |  |  |  |  |  | 
4 | AT129 [hGIP(5-30)NH2-C18/30] (peptide) |  |  |  |  |  |  |  | -3.9 |  |  |  |  |  |  | 
5 | EGTFISDYSIAMDK(Myristoyl)IHQQDFVNWLLAQK-NH2 [AT111 [hGIP(3-30)NH2-C14/16]] |  |  |  |  |  |  |  |  | 261 | 5.1 | 407 | 21.9 | 3.3 | 2090 | 31
6 | EGTFISDYSIAMDKIK(Lauroyl)QQDFVNWLLAQK-NH2 (N-terminus assumed; SMILES CCCCCCCCCCCC(=O)NCCCC[C@H](NC(=O)[C@@H](NC(=O)[C@H](CCCCN)NC(=O)[C@H](CC(=O)O)NC(=O)[C@H](CCSC)NC(=O)[C@H](C)NC(=O)[C@@H](NC(=O)[C@H](CO)NC(=O)[C@H](Cc1ccc(O)cc1)NC(=O)[C@H](CC(=O)O)NC(=O)[C@H](CO)NC(=O)[C@@H](NC(=O)[C@H](Cc1ccccc1)NC(=O)[C@@H](NC(=O)CNC(=O)[C@@H](N)CCC(=O)O)[C@@H](C)O)[C@@H](C)CC)[C@@H](C)CC)[C@@H](C)CC)C(=O)N[C@@H](CCC(N)=O)C(=O)N[C@@H](CCC(N)=O)C(=O)N[C@@H](CC(=O)O)C(=O)N[C@@H](Cc1ccccc1)C(=O)N[C@H](C(=O)N[C@@H](CC(N)=O)C(=O)N[C@@H](Cc1c[nH]c2ccccc12)C(=O)N[C@@H](CC(C)C)C(=O)N[C@@H](CC(C)C)C(=O)N[C@@H](C)C(=O)N[C@@H](CCC(N)=O)C(=O)N[C@@H](CCCCN)C(N)=O)C(C)C) [AT116 [hGIP(3-30)NH2-C12/18] (H18K)] |  |  |  |  |  |  |  |  | 71.2 | 5.2 | 61.5 | 11.9 | 1.2 | 321 | 5
7 | EGTFISDYSIAMDKIK(Stearoyl)QQDFVNWLLAQK-NH2 (N-terminus assumed; SMILES CCCCCCCCCCCCCCCCCC(=O)NCCCC[C@H](NC(=O)[C@@H](NC(=O)[C@H](CCCCN)NC(=O)[C@H](CC(=O)O)NC(=O)[C@H](CCSC)NC(=O)[C@H](C)NC(=O)[C@@H](NC(=O)[C@H](CO)NC(=O)[C@H](Cc1ccc(O)cc1)NC(=O)[C@H](CC(=O)O)NC(=O)[C@H](CO)NC(=O)[C@@H](NC(=O)[C@H](Cc1ccccc1)NC(=O)[C@@H](NC(=O)CNC(=O)[C@@H](N)CCC(=O)O)[C@@H](C)O)[C@@H](C)CC)[C@@H](C)CC)[C@@H](C)CC)C(=O)N[C@@H](CCC(N)=O)C(=O)N[C@@H](CCC(N)=O)C(=O)N[C@@H](CC(=O)O)C(=O)N[C@@H](Cc1ccccc1)C(=O)N[C@H](C(=O)N[C@@H](CC(N)=O)C(=O)N[C@@H](Cc1c[nH]c2ccccc12)C(=O)N[C@@H](CC(C)C)C(=O)N[C@@H](CC(C)C)C(=O)N[C@@H](C)C(=O)N[C@@H](CCC(N)=O)C(=O)N[C@@H](CCCCN)C(N)=O)C(C)C) [AT160 [hGIP(3-30)NH2[H18K]-C18/18]] |  |  |  |  |  |  |  |  | 48.8 | 3.6 | 48.8 | 36.1 | 0.7 | 175 | 6
8 | EGTFISDYSIAMDKIK(C16 diacid)QQDFVNWLLAQK-NH2 (N-terminus assumed; SMILES CC[C@H](C)[C@H](NC(=O)[C@H](CO)NC(=O)[C@H](Cc1ccc(O)cc1)NC(=O)[C@H](CC(=O)O)NC(=O)[C@H](CO)NC(=O)[C@@H](NC(=O)[C@H](Cc1ccccc1)NC(=O)[C@@H](NC(=O)CNC(=O)[C@@H](N)CCC(=O)O)[C@@H](C)O)[C@@H](C)CC)C(=O)N[C@@H](C)C(=O)N[C@@H](CCSC)C(=O)N[C@@H](CC(=O)O)C(=O)N[C@@H](CCCCN)C(=O)N[C@H](C(=O)N[C@@H](CCCCNC(=O)CCCCCCCCCCCCCCC(=O)O)C(=O)N[C@@H](CCC(N)=O)C(=O)N[C@@H](CCC(N)=O)C(=O)N[C@@H](CC(=O)O)C(=O)N[C@@H](Cc1ccccc1)C(=O)N[C@H](C(=O)N[C@@H](CC(N)=O)C(=O)N[C@@H](Cc1c[nH]c2ccccc12)C(=O)N[C@@H](CC(C)C)C(=O)N[C@@H](CC(C)C)C(=O)N[C@@H](C)C(=O)N[C@@H](CCC(N)=O)C(=O)N[C@@H](CCCCN)C(N)=O)C(C)C)[C@@H](C)CC) [AT158 [hGIP(3-30)NH2[H18K]-C16diacid/18]] |  |  |  |  |  |  |  |  | 7.9 | 2 | 7.9 | 4.5 | 0.1 | 16 | 1
9 | EGTFISDYSIAMDRIK(C16 diacid)QQDFVNWLLAQR-NH2 (N-terminus assumed; SMILES CC[C@H](C)[C@H](NC(=O)[C@H](CO)NC(=O)[C@H](Cc1ccc(O)cc1)NC(=O)[C@H](CC(=O)O)NC(=O)[C@H](CO)NC(=O)[C@@H](NC(=O)[C@H](Cc1ccccc1)NC(=O)[C@@H](NC(=O)CNC(=O)[C@@H](N)CCC(=O)O)[C@@H](C)O)[C@@H](C)CC)C(=O)N[C@@H](C)C(=O)N[C@@H](CCSC)C(=O)N[C@@H](CC(=O)O)C(=O)N[C@@H](CCCNC(=N)N)C(=O)N[C@H](C(=O)N[C@@H](CCCCNC(=O)CCCCCCCCCCCCCCC(=O)O)C(=O)N[C@@H](CCC(N)=O)C(=O)N[C@@H](CCC(N)=O)C(=O)N[C@@H](CC(=O)O)C(=O)N[C@@H](Cc1ccccc1)C(=O)N[C@H](C(=O)N[C@@H](CC(N)=O)C(=O)N[C@@H](Cc1c[nH]c2ccccc12)C(=O)N[C@@H](CC(C)C)C(=O)N[C@@H](CC(C)C)C(=O)N[C@@H](C)C(=O)N[C@@H](CCC(N)=O)C(=O)N[C@@H](CCCNC(=N)N)C(N)=O)C(C)C)[C@@H](C)CC) [AT159 [hGIP(3-30)NH2[K16R; H18K; K30R]-C16diacid/18]] |  |  |  |  |  |  |  |  | 25 | 0.8 | 25 | 5.6 | 0.1 | 20 | 3
10 | EGTFISDYSIALDKIK(Palmitoyl)QQDFVNWLLAQK-NH2 (N-terminus assumed; SMILES CCCCCCCCCCCCCCCC(=O)NCCCC[C@H](NC(=O)[C@@H](NC(=O)[C@H](CCCCN)NC(=O)[C@H](CC(=O)O)NC(=O)[C@H](CC(C)C)NC(=O)[C@H](C)NC(=O)[C@@H](NC(=O)[C@H](CO)NC(=O)[C@H](Cc1ccc(O)cc1)NC(=O)[C@H](CC(=O)O)NC(=O)[C@H](CO)NC(=O)[C@@H](NC(=O)[C@H](Cc1ccccc1)NC(=O)[C@@H](NC(=O)CNC(=O)[C@@H](N)CCC(=O)O)[C@@H](C)O)[C@@H](C)CC)[C@@H](C)CC)[C@@H](C)CC)C(=O)N[C@@H](CCC(N)=O)C(=O)N[C@@H](CCC(N)=O)C(=O)N[C@@H](CC(=O)O)C(=O)N[C@@H](Cc1ccccc1)C(=O)N[C@H](C(=O)N[C@@H](CC(N)=O)C(=O)N[C@@H](Cc1c[nH]c2ccccc12)C(=O)N[C@@H](CC(C)C)C(=O)N[C@@H](CC(C)C)C(=O)N[C@@H](C)C(=O)N[C@@H](CCC(N)=O)C(=O)N[C@@H](CCCCN)C(N)=O)C(C)C) [AT143 [hGIP(3-30)NH2[M14L; H18K]-C16/18]] |  |  |  |  |  |  |  |  | 86.1 | 1.2 | 86.1 | 13.3 | 0.3 | 105 | 11
